This is an account of results in patent US12134789B2, “Construction method and applications of glycosyltransferase BS-YjiC mutant” (Northwest university, priority 2023, dated 2024).

Where a chain is given by its changes, count along the chain named. Names and notes keep the numbering of the source. Values joined by “and” are separate entries in the source; they are usually repeats but may differ in a detail not shown here. Identical values can stand only once.

A word on the Km: it is the substrate concentration at which the rate is half of its maximum.

Series [1] in a line: Thermal stability: residual enzyme activity after incubation at 45° C. Format: biochemical. To be noted: pure enzyme incubated in water bath at 45° C. for 90 min; enzyme without high-temperature treatment as blank control. As for the experimental part: (§1) The detection methods involved in the following embodiments are as follows. • 1. Determination method of enzyme activity of glycosyltransferase BS-YjiC: 50 microliters (μL) of pure enzyme with a concentration of 1.5 milligrams per milliliter (mg/mL) is added to 950 μL of a reaction system containing 50 millimoles per liter (mM) Tris hydrochloride (Tris-HCl) (pH 8.0) buffer of 1 mM protopanaxadiol (PPD), 5 mM uridine diphosphate glucose (UDPG) and 8 mM magnesium chloride (MgCl2); reacted in a water bath at 35° C. for 30 minutes (min), then added the same volume of methanol to terminate the enzymatic reaction, so as to obtain a reacted product. The reacted product is centrifuged, then the supernatant is taken and filtered with a 0.22 micrometers (μm) filter to obtain a reaction solution, and the residual amount of PPD in the reaction solution is detected by high-performance liquid chromatography (HPLC). • 2. Definition of enzyme activity: the amount of enzyme required to convert 1 micromole (μmol) of ginsenoside PPD per minute at 35° C. and pH 8.0 is defined as one unit of enzyme activity U.
After the prepared pure enzymes are incubated in a water bath at 45° C. for 90 min, 1 mL is taken, and the residual enzyme activity of the remaining enzymes is determined according to the enzyme activity determination method of the glycosyltransferase BS-YjiC, and the percentage of residual enzyme activity is obtained by taking the enzyme activity of the pure enzyme solution without high-temperature treatment as a blank control.
The pure enzyme solutions containing wild-type glycosyltransferase BS-YjiC, K125I, N178I, P313W, K125I/N178I and K125I/P313W prepared in the step 2 of the embodiment 6 are taken, respectively, then put in a constant temperature water bath at 45° C., and sampled every 30 min. The residual enzyme activity of glycosyltransferase BS-YjiC is measured according to the enzyme activity determination method, and its thermal stability is compared.

A short description of series [2]: Initial enzyme activity of pure enzyme solutions. The conditions noted are these: 35° C., pH 8.0, 1 mM PPD, 5 mM UDPG. Format: biochemical. As for the experimental part:
as §1
The pure enzyme solutions containing the wild-type glycosyltransferase BS-YjiC, K125I, N178I, P313W, K125I/N178I, and K125I/P313W prepared above are detected respectively, and the results are shown in Table 2.

A short description of series [3]: Kinetic parameters with PPD as substrate (HPLC). The class given is biochemical. To be noted: 50-1000 μM PPD, 10 mM UDPG, 8 mM MgCl2, pH 8.0, 35° C., 30 min. The method, then: 0.22 μg of pure enzyme is added into 50 mM […] (pH 8.0) buffer containing 10 mM UDPG and 8 mM MgCl2, added 50, 100, 200, 300, 400, 500, 600, 800 and 1000 μM PPD respectively, reacted at 35° C. in water bath for 30 min, and then then an equal volume of methanol is added to terminate the enzymatic reaction. The reacted products are centrifuged, then the supernatants are taken and filtered by a 0.22 μm filter to obtain reaction solutions, and the remaining amount of PPD in the reaction solutions is detected by HPLC.

Series [4] in a line: Melting temperature Tm of the enzyme. Format: physicochemical.

B1: WT: wild-type glycosyltransferase BS-YjiC from Bacillus subtilis 168, amino acid sequence SEQ ID NO: 1 (protein)
chain: MKKYHISMINIPAYGHVNPTLALVEKLCEKGHRVTYATTEEFAPAVQQAGGEALIYHTSLNIDPKQIREMMEKNDAPLSLLKESLSILPQLEELYKDDQPDLIIYDFVALAGKLFAEKLNVPVIKLCSSYAQNESFQLGNEDMLKKIREAEAEFKAYLEQEKLPAVSFEQLAVPEALNIVFMPKSFQIQHETFDDRFCFVGPSLGERKEKESLLIDKDDRPLMLISLGTAFNAWPEFYKMCIKAFRDSSWQVIMSVGKTIDPESLEDIPANFTIRQSVPQLEVLEKADLFISHGGMNSTMEAMNAGVPLVVIPQMYEQELTANRVDELGLGVYLPKEEVTVSSLQEAVQAVSSDQELLSRVKNMQKDVKEAGGAERAAAEIEAFMKKSAVPQ
As to B1, in series [1], the “Residual enzyme activity (%)” value is on record as 84.6%. Besides, the “Initial enzyme activity (%)” value in series [2] came out at 100%. In series [3], the Kcat was 0.96 ± 0.06 s⁻¹, the Km worked out at 132 ± 32.1 µM and the Vmax was determined as 8.32 ± 0.36 U g^−1. Besides, the “melting temperature Tm” value in series [4] worked out at 47.30 °C.

B2: N178I: BS-YjiC (SEQ ID NO: 1) mutant with asparagine at the 178th position mutated into isoleucine (protein)
chain: B1 chain with N178I
As to B2, the “Residual enzyme activity (%)” value in series [1] came to 87.42%. Also, the “Initial enzyme activity (%)” value in series [2] came to 98.76%. In series [3], the Kcat turned out to be 1.01 ± 0.07 s⁻¹, the Km was determined as 132 ± 33.8 µM and the Vmax was found to be 8.75 ± 0.62 U g^−1.

B3: K125I/N178I: BS-YjiC (SEQ ID NO: 1) double mutant: lysine into isoleucine (K125I) and asparagine 178 into isoleucine (protein)
chain: B1 chain with K125I, N178I
Turning to B3, in series [1], the “Residual enzyme activity (%)” value was 98.3% and 98.25%. Moreover, the “Initial enzyme activity (%)” value in series [2] stood at 106.47%. In addition, in series [3], the Kcat amounted to 1.01 ± 0.05 s⁻¹, the Km came to 117 ± 22.5 µM and the Vmax stood at 8.82 ± 0.45 U g^−1. Further, in series [4], the “increase of melting temperature Tm over natural glycosyltransferase BS-YjiC” value worked out at 7.21 °C and the “melting temperature Tm” value came out at 54.51 °C.

B4: K125I: BS-YjiC (SEQ ID NO: 1) mutant with lysine mutated into isoleucine (K125I) (protein)
chain: B1 chain with K125I
B4: the “Residual enzyme activity (%)” value in series [1] is 91.05%. In series [2], the “Initial enzyme activity (%)” value worked out at 103.15%. In addition, in series [3], the Kcat was 0.99 ± 0.05 s⁻¹, the Km was found to be 128 ± 22.4 µM and the Vmax worked out at 8.60 ± 0.41 U g^−1.

B5: K125I/P313W: BS-YjiC (SEQ ID NO: 1) double mutant: lysine into isoleucine (K125I) and proline 313 into tryptophan (protein)
chain: B1 chain with K125I, P313W
For the molecule B5, the “Residual enzyme activity (%)” value in series [1] was 95.1% and 95.43%. The “Initial enzyme activity (%)” value in series [2] was 105.13%. Moreover, in series [3], the Kcat amounted to 0.98 ± 0.05 s⁻¹, the Km was 121 ± 23.1 µM and the Vmax was 8.56 ± 0.44 U g^−1. In addition, in series [4], the “increase of melting temperature Tm over natural glycosyltransferase BS-YjiC” value amounted to 5.77 °C and the “melting temperature Tm” value amounted to 53.07 °C.

B6: P313W: BS-YjiC (SEQ ID NO: 1) mutant with proline at the 313th position mutated into tryptophan (protein)
chain: B1 chain with P313W
For the molecule B6, the “Residual enzyme activity (%)” value in series [1] was determined as 89.48%. The “Initial enzyme activity (%)” value in series [2] was found to be 96.53%. In series [3], the Kcat turned out to be 1.11 ± 0.08 s⁻¹, the Km worked out at 136 ± 32 µM and the Vmax is reported as 8.94 ± 0.60 U g^−1.
